Results published in patent US20260008852A1.
Blank lines part the entries; values can stand above or below the binder they belong to.

What was measured:
[1] = target: His-tagged human B7-H3 (human) (UniProt Q5ZPR3); experiment: ELISA OD450 on hu B7-H3 over OD450 on mu B7-H3
[2] = target: His-tagged human B7-H3 (human) (UniProt Q5ZPR3); experiment: ELISA, coated His-tagged antigen, scFv-Fc 1 ug/ml
[3] = target: His-tagged mouse B7-H3 (mouse) (UniProt Q8VE98); experiment: ELISA, coated His-tagged antigen, scFv-Fc 1 ug/ml
Chain of His-tagged mouse B7-H3 (mouse) (Q8VE98 29-244 limits assumed): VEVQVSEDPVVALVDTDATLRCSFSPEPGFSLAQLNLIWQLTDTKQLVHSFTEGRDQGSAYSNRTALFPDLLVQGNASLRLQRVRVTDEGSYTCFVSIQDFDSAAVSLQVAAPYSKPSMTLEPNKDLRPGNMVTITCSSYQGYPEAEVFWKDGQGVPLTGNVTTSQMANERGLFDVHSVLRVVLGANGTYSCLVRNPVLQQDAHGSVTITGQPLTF

Chain of His-tagged human B7-H3 (human) (Q5ZPR3 other isoform, or with tags, fused parts or gaps limits assumed): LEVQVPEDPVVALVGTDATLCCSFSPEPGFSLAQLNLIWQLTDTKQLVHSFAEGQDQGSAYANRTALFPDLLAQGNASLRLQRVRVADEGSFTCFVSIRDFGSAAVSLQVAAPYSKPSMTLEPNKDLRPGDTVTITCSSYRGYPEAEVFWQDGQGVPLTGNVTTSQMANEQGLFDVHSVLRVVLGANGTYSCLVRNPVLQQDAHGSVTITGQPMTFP

hu:mu ratio [1]: 1.51 | ELISA OD450 @ 1 ug/ml [2]: 0.077 OD450
B1: 40579p1.H11 (scFv, V domains shown)
VH: EVQLLESGGGLVQPGGSLRLSCAASGFTFDDYGMSWVRQAPGKGLEWVSAIRSKASSYATYYADSVKGRFTVSRDNSENTLYLQMNSLRAEDTAVYYCAKHRSNYYFMDVWGQGTTVTVSS
VL: EIVLTQSPGTLSLSPGERATLSCRASQSVGSDLAWYQQRPGQAPRLLIYAASSRATDIPDRFSGSGSGTDFTLTISSLQSEDFAVYYCQQYYSWPPLTFGGGTKVEIK

hu:mu ratio [1]: 1.09 | ELISA OD450 @ 1 ug/ml [2]: 0.049 OD450 | ELISA OD450 @ 1 ug/ml [3]: 0.045 OD450
B2: 40633p1.2.C11 (scFv, V domains shown)
VH: EVQLLESGGGLVQPGGSLRLSCAASGFTFSSYWMSWVRQAPGKGLEWVAGINRNGGSTYYADSVKGRFTISRDNSENTLYLQVNSLRAEDTAVYYCARWNDYDIMDVWGQGTTVTVSS
VL: QSVLTQPSSASGTPGQRVTISCSGSSSNVGRRAVNWYQQLPGTAPKLLISNSQRPSGVPDRFSGSKSGTSASLAISGLQSEDEADYYCATWDASLNSWVFGGGTKLTVL
